One block for each binder: values may come before it.
Key:
FcRn-p3 fusion protein [1] = target: T1, FcRn-p3 fusion protein (human, UniProt P55899 24-297; P61769 21-119); test: ELISA pH6, soluble Fc on coated FcRn-p3
T1 construct: baculovirus expressed; coated on ELISA wells; not shown: amino terminal part of bacteriophage p3 protein and CVDE protein

[2] = target: T2, recombinant soluble human FcRn (human, UniProt P55899 24-297; P61769 21-119); test: SPR pH6, immobilized FcRn, steady state
T2 construct: amine-coupled to the SPR chip

FcRn-p3 fusion protein [3] = target: T1, FcRn-p3 fusion protein; test: phage ELISA pH6

- EC50 (FcRn-p3 fusion protein [1]): 7.3 nM
- Kd [2]: 5.9 nM
B1: C6A_74 (soluble recombinant Fc polypeptide) (other)
chain: CPPCPAPELLGGPSVFLFPPKPKDTLMISRTPEITCVVVDVSHEDPEVKFNWYVDGVEVHNAKTKPREEQYNSTYRVVSVLTVLHQDWLDGKEYKCKVSNKALPAPIEKTISKAKGQPREPQVYTLPPSRDELTKNQVSLTCLVKGFYPSDIAVEWESNGQPENNYKTTPPVLDSDGSFFLYSKLTVDKSRWQQGNVFSCSVMHEALHYHYTQKSLSLSPGK
notes: EU numbering; E. coli periplasmic expression; not shown: C-terminal 6xHis tag and V5 tag

- Ratio/Fc-WT (FcRn-p3 fusion protein [3]): 4.4 fold
B6: S6A_48 (other)
chain: CPPCPAPELLGGPSVFLFPPKPKDTLMISRTPEVTCVVVDVSHEDPEVKFNWYVDGVEVHNAKTKPREEQYNSTYRVVSVLTVLHQDWLNGKEYKCKVSNKALPAPIEKTISKAKGQPREPQVYTLPPSQDELTKNQVSLTCLVKGFYPSDIAVEWESNGQPENNYENTPPVLDSDGSFFLYSKLTVDKSRWQQGNVFSCTVMHEALHYHYTQKSLSLSPGK
notes: EU numbering

- Ratio/Fc-WT (FcRn-p3 fusion protein [3]): 4.3 fold
B7: SSA_20 (other)
chain: CPPCQAPELLGGPSVYLFPPRPKDTLMISRTPEVTCVVVDVSHEEPEVKFNWYVDGVEVHNAKTKPREEQYNSTYRVVSVLTVLHQDWLNGKEYKCKVSNKALPAPIEKTISKAKGQPREPQVYTLPPSRDELTKNQVSLTCLVKGFYPSDIAVEWESNGQPENNYKTTPPVLDSDGSFFLYSKLTVDKSRWQQGNVFSCSVMHEALHNHYTQKSLSLSPGK
notes: EU numbering; also called S5A_20 (probable reading)

- EC50 (FcRn-p3 fusion protein [1]): 2.6 nM
B9: C6A_60 (soluble recombinant Fc polypeptide) (other)
chain: CPPCSAPELLGGPSVFLFPPKPKDTLMISRTPEVTCVVVDVSHEDPEVKFNWYVDGVEVHNAKTKPREEQYNSTYRVVSVLTVLHQDWLDGKEYKCKVSNKALPAPIEKTISKAKGQPREPQVYTLPPSRDELTKNQVSLTCLVKGFYPSDIAVEWESNGQPENNYKTTPPVLDSDGSFFLYSKLTVDKSRWQQGNVFSCSVLHEALHYHYTQKSLSLSPGK
notes: as for B1

- EC50 (FcRn-p3 fusion protein [1]): 3.7 nM
- ELISA ratio/Fc-WT (Fc-WT EC50 / variant EC50) (FcRn-p3 fusion protein [1]): 124 fold
- Kd [2]: 7.2 nM
- SPR Ratio/Fc-WT (Fc-WT Kd / variant Kd) [2]: 4.2 fold
B10: C6A_69 (soluble recombinant Fc polypeptide) (other)
chain: CPPCPAPELLGGPSVFLFPPKPKDTLMISRTPEVTCVVVDVSHEDPEVKFNWYVDGVEVHNAKTKPREEQYNSTYRVVSVLAVLHQDWLDGKEYKCKVSNKALPVPIEKTISKAKGQPREPQVYTLPPSRDELTKNQVSLTCLVKGFYPSDIAVEWVSNGQPETNYKTTPPVLDSDGSFFLYSKLTVDKSRWQQGNVFSCSVMHEALHYHYTQKSLSLSPGK
notes: as for B1

- EC50 (FcRn-p3 fusion protein [1]): 7.8 nM
- ELISA ratio/Fc-WT (Fc-WT EC50 / variant EC50) (FcRn-p3 fusion protein [1]): 59 fold
- Kd [2]: 12.4 nM
- SPR Ratio/Fc-WT (Fc-WT Kd / variant Kd) [2]: 2.4 fold
B11: C6A_72 (soluble recombinant Fc polypeptide) (other)
chain: CPPCPAPELLGGPSVFLFPPKPKDALMISRTPEVTCVVVDVSHEDPEVKFNWYVDGVEVHNAKTKPREEQYNSTYRVVSVLTVLHQDWLNGKEYKCKVSNKALPAPIEKTISKAKGQPREPQVYTLPPSRDELTKNQVSLTCLVKGFYPSDIAVEWESNGQPEKNYKTTPPVLDSDGSFFLYSKLTVDKSRWQQGNVFSCSVMHEALHYHYTQKSLSLSPGK
notes: as for B1

- Kd [2]: 12.4 nM
B13: T5A_78 (soluble recombinant Fc polypeptide) (other)
chain: CPPCPAPELLGGPSVFLFPPKPKDTLMISRTPEVTCVVEDVSHEDPEVKFNWYVDGVEVHNAKTKPREEQYNSTYRVVSVLTVLHQDWLNGKEYKCKVSNKALPAPIEKTISKAKGQPREPQVYTLPPSRDELTKNQVSLTCLVKGFYPSDIAVEWESNGRPENNYKTTPLVLDSDGSFFLYSKLTVDKSRWQQGNVFSCSVMHEALHSHYTQRSLSLSPGK
notes: as for B1

- EC50 (FcRn-p3 fusion protein [1]): 145 nM
- ELISA ratio/Fc-WT (Fc-WT EC50 / variant EC50) (FcRn-p3 fusion protein [1]): 3 fold
- Kd [2]: 22.7 nM
- SPR Ratio/Fc-WT (Fc-WT Kd / variant Kd) [2]: 1.3 fold
B14: T5A_81 (soluble recombinant Fc polypeptide) (other)
chain: CPPCPAPELLGGPSVFLFPPKPKDTLMISRTPEVTCVVEDVSHEDPEVKFNWYVDGVEVHNAKTKPREEQYNSTYRVVSVLTVLHQDWLNGKEYKCKVSNKALPAPIEKTISKAKGQPREPQVYTLPPSRDELTKNQVSLTCLVKGFYPSDIVVEWESNGQPENNYKTTPPVLDSDGSFFLYSKLTVDKSKWQQGNVFSCSVMHEALHNHYTQKSLSLSPGK
notes: as for B1

- EC50 (FcRn-p3 fusion protein [1]): 4.9 nM
B15: C6A_66 (soluble recombinant Fc polypeptide) (other)
chain: CPPCPAPELLGGPSVFLFPPKPKDTLMISRTPEVTCVVVDVSHEDPEVKFNWYVDGVEVHNAKTKPREQYNSTYRVVSVLPVLHQDWLNGKEYKCKVSNKALPAPIEKTISKAKGQPREPQVYTLPPSRDELTKNQVSLTCLVKGFYPSDIAVEWESNGQPENNYKTTPPVLDSDGSFFLYSKLTVDKSRWQQGNVFSCSVMHEALHYHYTQKSLSLSPGK
notes: EU numbering; E. coli periplasmic expression; E294del is a deletion; not shown: C-terminal 6xHis tag and V5 tag

Second part, the binder before the results:

B2: S4A_42 (other)
chain: CPPCPAPELLGGPSVFLFPPKPKDTLMISRTPEVTCVVADVSHEDPEVKFNWYVDGVEVHNAKTKPREEQYNSTYRVVSVLTVLHQDWLNGKEYKCKVSNKALPAPIEKTISKAKGQPREPQVYTLPPSRDELTKNQVSLTCLVKGFYPSDIAVEWESNGQPENNYKTTPPVLDSDGSFFLYSKLTVDKSRWQQGNVFSCSVMHEALHYHYTQKSLSLSPAK
notes: EU numbering
- Ratio/Fc-WT (FcRn-p3 fusion protein [3]): 4.2 fold

B3: S5A_07 (other)
chain: CPPCPAPELLGGPSVFLFPPKPKDTLMISRTPEVTCVVVDVSHEDPEVKFNWYVDGVEVHNAKTKPREEQYNSTYRVVSVLTVLHQDWLNGKEYKCKVSNKALPAPIEKTISKAKGQPREPQVYTLPPSRDELTKNQVSLTCLVKGFYPSDIVVEWESNGQPENNYKTTPPVLDSDGSFFLYSKLTVDKSRWQQGTVFSCSVMHEALHSHYTQKSLSLSPGK
notes: EU numbering
- Ratio/Fc-WT (FcRn-p3 fusion protein [3]): 5.1 fold

B4: S5A_26 (other)
chain: CPPCPAPELLGGPSVFLFPPKPKDTLMISRTPEVTCVVVDVSHEDPEVKFNWYVDGVEVHNAKTKPREEQYNSTYRVVSVLTVLHRDWLNGKEYKCKVSNKALPAPIERTISKAKGEPREPQVYTLPPSRDELTKNQVSLTCLVKGFYPSDIAVEWESNGQPENNYKTTPPVLDSDGSFFLYSKLTVDKSRWQQGNVFSCSVMHEALHYHYTQKSLSLSPGK
notes: EU numbering
- Ratio/Fc-WT (FcRn-p3 fusion protein [3]): 7.9 fold

B5: S5A_43 (other)
chain: CPPCSAPELLGGPSVFLFPPKPKDTLMISRTPEVTCVVVDVSHEDPEVKFNWYVDGVELHNAKTKPREEQYNSTYRVVSVLTVLHQDWLNGKEYKCKVSNKALPAPIEKTISKAKGQPREPQVYTLPPSRDELTKNQVSLTCLVKGFYPSDIVVEWESNGQPENNYKTTPPVLDSDGSFFLYSKLTVDKSRWQQGNVFSCSVMHEALHNHYTQKSLSLSPGK
notes: EU numbering
- Ratio/Fc-WT (FcRn-p3 fusion protein [3]): 5.7 fold

B8: T5A_74 (soluble recombinant Fc polypeptide) (other)
chain: CPPCPAPELLGGPSVFLFPPKPKDTLMISRTPEVTCVVVDVSHEDPEVKFNWYVDGVEVHNAKTKPREEQYNSTYRVVSVLTVLHQDWLDGKEYKCKVSNKALPVPIEKTISKAKGQPREPQVYTLPPSRDELTKDQVSLTCLVKGFYPSDIVVEWESNGQPENNYKTTPPVLDSDGSFFLYSKLTVDKSRWQQGNVFSCSVMHEALHYHYTQKSLSLSPGK
notes: as for B1
- EC50 (FcRn-p3 fusion protein [1]): 5.5 nM

B12: T5A_58 (soluble recombinant Fc polypeptide) (other)
chain: CPPCPAPELLGGPSVLLFPPKPKDTLMISRTPEVTCVVEDVSHEDPEVKFNWYVDGVEVHNAKTKPREEQYNSTYRVVSVLPVLHQDWLNGKEYKCKVSNKALPAPIEKTISKAKGQPREPQVYTLPPSRDELTKNQVSLTCLVKGFYPSDIVVEWESNGQPENNYKTTPPVLDSDGSFFLYSKLTVDKSRWQQGNVFSCSVMHEALRNHYTQKSLSLSPGK
notes: as for B1
- Kd [2]: 15.4 nM

— patent publication USRE46585 (LABORATOIRE FRANCAIS DU FRACTIONNEMENT ET DES …, dated 2017)
